Measurements: patent US20220347267A1, “METHODS TO IMPROVE PATIENT RESPONSE TO IMMUNE CHECKPOINT INHIBITORS AND FUNCTIONAL TESTS TO PREDICT RESPONSE” (Biomarker Strategies, LLC, priority 2019, published 2022)

Tested on: various NSCLC, HNSCC, breast cancer, melanoma, colorectal cancer, and pancreatic cancer cell lines
Test: PD-L1 western blot after modulators, summary over all samples
Format: cell-based, human
Details: depending on the sample, summary of Table 3
Description: Cell lines were acquired from ATCC, Sigma, or DSMZ. Human non-small cell lung carcinoma (NSCLC) cell lines H292 (ATCC no. CRL-1848.), H1299 (ATCC no. CRL-5803), H520 (ATCC no. CRL-5811), CALU6 (ATCC no. HTB-56), H1975 (ATCC no. CRL-5908), H460 (ATCC no. HTB-177), H2126 (ATCC no. CCL-256), H1650 (ATCC no. CRL-5883), and H2087 (ATCC no. CRL-5922) were used for this experiment along with head and neck squamous cell carcinoma (HNSCC) cell lines BHY (DSMZ ACC 404), CAL27 (ATCC no. CRL-2095), KYSE410 (Sigma), and A253 (ATCC no. HTB-41), melanoma cell lines A375 (ATCC no. CRL-1619), COL0853 (Sigma), and MM127 (Sigma) pancreatic cancer cell lines BXPC3 (ATCC no. CRL-1687), colorectal cancer cell lines […], HCT116 (ATCC no. CCL-247EMT), and breast cancer cell lines BT549 (ATCC no. HTB-122), BT20 (ATCC no. HTB-19), and T47D (ATCC no. HTB-133). Cells were maintained in manufacturer-recommended conditions at 37° C. inside humidified 5% CO2 incubators. Sub-cultivation and harvesting for all cell lines were performed using Accutase (GIBCO Life Technologies; cat. no. A1110501) at 37° C. for 10 minutes. Cell viability was measured using trypan blue exclusion staining in conjunction with the Countess II Automated Cell Counter (Thermo Fischer Scientific; cat. no. AMQAX1000). Measurements were made in duplicate and the average number of viable cells was recorded prior to experiments.
T7039), and IL-10 (50 ng/ml; Sigma Aldrich cat. no. SRP3071) were administered to cell lines for various times including 30 minutes, 3 hour, and 24 hour time intervals prior to cell lysis and protein extraction.
To determine the effects of the aforementioned molecules on the modulation of PD-L1, we selected various NSCLC, HNSCC, breast cancer, melanoma, colorectal cancer, and pancreatic cancer cell lines as examples. Other diseases or cell lines could be used readily as could more complex samples such as cells isolated from xenografts and clinical samples. Cells were plated, for three different time points (30 minutes, 3 hours, and 24 hours), inside 6-well petri dishes with 2 mL of appropriate medium. Plates were incubated for 24 hours in 5% CO2 incubators at 37° C. After 24 hours, each 6-well plate was washed with PBS (Gibco Life Technologies, cat. no. 10010023) followed by fresh media being added along with each cell line's vehicle control or appropriate modulator for each specific time point, and were placed in CO2 incubators until their modulation time point was reached. Other conditions can be readily used, such as processing on automated systems such as SnapPath. At the end of each time point, while keeping plates on ice, cell lysis was conducted by aspirating culture medium from each plate, washing of each plate three times with 5 ml of cold PBS (Gibco Life Technologies, cat. no. 10010023) and culminated with the addition of cold 1× lysis buffer containing (Cell Signaling, cat. no. 9803 S) protease inhibitor cocktail (Cell Signaling, cat. no. 5871S), phosphatase inhibitor cocktail (Cell Signaling, cat. no. 5870S), and PMSF (Fisher Scientific, cat. no. ICN19538101). Plates were then placed on ice for ten minutes, swirling each plate intermittently. Aliquots of protein lysates were prepared and then stored at −80° C. until protein quantification and Western blot analysis was to be conducted. The protein concentration of each lysate was analyzed by using the Pierce 660 Protein Assay Reagent (Thermo Fisher Scientific, cat. no. 22660) and testing of each sample was conducted in duplicate. Two μg of protein was then loaded per lane into 10% Midi-PROTEAN TGX Precast Gels (Bio Rad, cat. no. 5671034) along with Kaleidoscope Prestained Protein Standard (BioRad, cat. no. 1610375) which ran at 220V for 45 minutes. Proteins were transferred to mini-PVDF membranes (BioRad, cat. no. 1704156) in 3 minutes using the Trans-Blot Turbo Transfer System (BioRad, cat. no. 1704150EDU).

B1: IFNγ: human IFNγ, modulator (10 ng/ml; Sigma Aldrich) (protein, UniProt P01579 24-161, looked up)
Interferon gamma: QDPYVKEAENLKKYFNAGHSDVADNGTLFLGILKNWKEESDRKIMQSQIVSFYFKLFKNFKDDQSIQKSVETIKEDMNVKFFNSNKKKRDDFEKLTNYSVTDLNVQRKAIHELIQVMAELSPAAKTGKRKRSQMLFRG
  regulation of PD-L1 across samples: only led to upregulation
